B1: C0101PMP112A03 (VHH)
VHH: EVQLVESGGGLVQPGGSLRLSCAASGSIFSNRFMYWYRQAPGKQRELVASITLSGSTNYADSVKGRFTISRDNAKNTVYLQMNSLKPEDTAVYYCNTFLQNSFYWGQGTQVTVSS
notes: Tested as E. coli periplasmic extract; not shown: FLAG3 and His6 tags (phagemid pAX212)
B2: C0101PMP112A01 (VHH)
VHH: EVQLVESGGGLVQTGGSLRLSCVASGRAFSNYIMGWFRQAPGKERDFVAAINWNGVTTHYTDSVKGRFTISRDNAKSTSYLQMDSLKPDDTAVYFCAARGTVYSRTYGVSEEGYMYWGQGTQVTVSS
notes: as for B1
B3: C0101PMP609C09 (VHH)
VHH: DVQLVESGGGLVQPGGSLRLSCAASGTIFSINVMGWYRQAPGKEREFVAAITTGGRTNYADSVKGRFTISRDNSKNTVYLQMNSLRPEDTAVYYCNAEVTTGWVGYSWYDYWGQGTMVTVSS
notes: as for B1
B4: C0101PMP117G09 (VHH)
VHH: EVQLVESGGGSALPGGSLRLSCAASGITFSSRYMRWYRQAPGRQRELVAAISSGGRTDYVDSVRGRFTLSINNAKNTVYLQMNDLKPEDTAVYYCYRPRMYVDGTYEKELWGQGTLVTVSS
notes: as for B1
B5: C0101PMP115B08 (VHH)
VHH: KVQLVESGGGLVQPGGSLRLSCAASGFTFSMYAMKWVRQAPGKGLEWVSGINSSGGRTNYAGSVKGRFTISRDNAKNTLYLQMNSLKPEDTAVYYCATDFLGGRNSRGQGTQVTVSS
notes: as for B1
B6: C0101PMP604F02 (VHH)
VHH: DVQLVESGGGLVQPGGSLRLSCAASGRTFSSYTMGWFRQAPGKEREFVAAISWSGGRTYYADSVKGRFTISRDNSKNTVYLQMNSLRPEDTAVYYCAAYRRRRASSNRGLWDYWGQGTLVTVSS
notes: as for B1
B7: C0101PMP113A01 (VHH)
VHH: EVQLVESGGGLVQPGGSLRLSCSASGFTFSGSWMFWVRQAPGKDYEWVASINSSGGRTYYDDSVKGRFTISRDSAKNTLYLEMNNLKPEDTALYFCARSPRVGSWGQGTQVTVSS
notes: as for B1
B8: C0101PMP117D05 (VHH)
VHH: KVQLVESGGGLVQAGGSLRLSCAASRRTFNMMGWFRQAPGKEREFVAYITWNGGDTRYAESVKGRFTVSRDDVKNTMALQMNRLDPLDTAVYYCGVRIHGSNWSTKADDYDNWGQGTQVTVSS
notes: as for B1
B9: C0101PMP601E08 (VHH)
VHH: DVQLVESGGGLVQPGGSLRLSCTASGRTFSSYAVGWFRQAPGKEREFVAAISRSGRSTYYADSVKGRFTISRDNSKNTVYLQMNSLRPEDTAVYYCAAGLSYYSPHAYYDYWGQGTLVTVSS
notes: as for B1
B10: C0101PMP606A07 (VHH)
VHH: DVQLVESGGGLVQPGGSLRLSCVASGRTFSIYGMGWFRQAPGKEREFVAAINGGSRTYYADSVKGRFTISRDNSKNTVYLQMNSLRPEDTAVYYCAADRSGYGTSLDWWYDYWGQGTLVTVSS
notes: as for B1
B11: C0101PMP114F08 (VHH)
VHH: EVQLVESGGGLVQAGGSLRLSCAASGSTFIINVVRWYRRTPGKQRELVATISSGGNANYVDSVRGRFSISRDGAKNAVDLQMNGLKPEDTAVYYCNVPTTHYGGVYYGPYWGQGTQVTVSS
notes: as for B1
B12: C0101PMP601D02 (VHH)
VHH: DVQLVESGGGLVQPGGSLRLSCAASGPTFSRYAMGWFRQAPGKEREFVAAITWSSGGRTYYADSVKGRFTISRDNSKNTVYLQMNSLRPEDTAVYYCAAARIPVRTYTSEWNYWGQGTLVTVSS
notes: as for B1
B13: C0101PMP604G09 (VHH)
VHH: DVQLVESGGGLVQPGGSLRLSCVASGRTFSSYAMGWFRQAPGKEREFVAAITWSSATTYYADSVKGRFTISRDNSKNTVYLQMNSLRPEDTAVYYCAAARIPVGRRSENWDYWGQGTLVTVSS
notes: as for B1
B14: C0101PMP608A05 (VHH)
VHH: DVQLVESGGGLVQPGGSLRLSCAASGRTFSTYTMGWFRQAPGKEREFVAAISWSGGTTYYADSVKGRFTISRDNSKNTVYLQMNSLRPEDTAVYYCAARPRYYYYSLYSYDYWGQGTLVTVSS
notes: as for B1
B15: C0101PMP604G01 (VHH)
VHH: DVQLVESGGGLVQPGGSLRLSCAASGRTFSSYTMGWFRQAPGKEREFVAAISWSGRTTYYADSVKGRFTISRDNSKNTVYLQMNSLRPEDTAVYYCAAYRRVRYTNLEVWDYWGQGTLVTVSS
notes: as for B1
B16: C0101PMP604B05 (VHH)
VHH: DVQLVESGGGLVQPGGSLRLSCVASGRTFSIYTMAWFRQAPGKEREFVAAISWSSGRTYYADSVKGRFTISRDNSKNTVYLQMNSLRPEDTAVYYCTAYTGPRSGYDYWGQGTLVTVSS
notes: as for B1
B17: C0101PMP601E09 (VHH)
VHH: DVQLVESGGGLVQPGGSLRLSCAASGLTFSTYAMGWFRQAPGKEREFVAAISWSGSRTYYADSVKGRFTISRDNSKNTVYLQMNSLRPEDTAVYYCAAYRRPRYSPTGTWDYWGQGTLVTVSS
notes: as for B1

The binders below were run against T1, recombinant human Aggrecan G1-IGD-G2 (human, UniProt P16112 20-676) (assay: periplasmic extract ELISA).
T1 construct: Only the G1-IGD-G2 region was used (R&D Systems 1220-PG is named for the immunogen); also called Hu G1-IGD-G2

Binder | OD 450 nm
B1 | 2.51 OD 450 nm
B2 | 2.5 OD 450 nm
B3 | 2.1 OD 450 nm
B4 | 2.21 OD 450 nm
B5 | 1.65 OD 450 nm
B6 | 2.41 OD 450 nm
B7 | 2.56 OD 450 nm
B8 | 2.25 OD 450 nm
B9 | 2.28 OD 450 nm
B10 | 0.71 OD 450 nm
B11 | 2.38 OD 450 nm
B12 | 2.58 OD 450 nm
B13 | 2.41 OD 450 nm
B14 | 2.33 OD 450 nm
B15 | 2.27 OD 450 nm
B16 | 2.48 OD 450 nm

These binders were tested against T2, recombinant rat Aggrecan G1-IGD-G2 (rat, UniProt P07897 20-684, limits assumed) (assay: periplasmic extract ELISA).
T2 construct: also called Rat G1-IGD-G2

Binder | OD 450 nm
B1 | 1.69 OD 450 nm
B2 | 2.03 OD 450 nm
B3 | 0.97 OD 450 nm
B4 | 2.29 OD 450 nm
B5 | 1.85 OD 450 nm
B6 | 0.78 OD 450 nm
B7 | 2.53 OD 450 nm
B8 | 2.35 OD 450 nm
B9 | 2.49 OD 450 nm
B10 | 2.31 OD 450 nm
B11 | 2.05 OD 450 nm
B12 | 2.59 OD 450 nm
B13 | 1.4 OD 450 nm
B17 | 2.61 OD 450 nm
B14 | 2.39 OD 450 nm
B15 | 0.6 OD 450 nm
B16 | 1.98 OD 450 nm

What follows are binders tested against T3, recombinant bovine Aggrecan G1-IGD-G2 (bovine, UniProt P13608 20-684, limits assumed) (assay: periplasmic extract ELISA).
T3 construct: also called Bov G1-IGD-G2; Boy G1-IGD-G2

Binder | OD 450 nm
B1 | 0.73 OD 450 nm
B2 | 2.41 OD 450 nm
B3 | 1.08 OD 450 nm
B4 | 0.76 OD 450 nm
B5 | 0.84 OD 450 nm
B6 | 0.82 OD 450 nm
B7 | 2.54 OD 450 nm
B8 | 1.92 OD 450 nm
B9 | 1.68 OD 450 nm
B11 | 1.18 OD 450 nm
B13 | 1.21 OD 450 nm
B14 | 2.27 OD 450 nm
B15 | 0.68 OD 450 nm
B16 | 1.63 OD 450 nm

The binders below were run against T4, recombinant dog Aggrecan G1-IGD-G2 (dog, UniProt Q28343 20-693, limits assumed) (assay: periplasmic extract ELISA).
T4 construct: also called Dog G1-IGD-G2

Binder | OD 450 nm
B1 | 1.47 OD 450 nm
B2 | 1.57 OD 450 nm
B3 | 1.52 OD 450 nm
B4 | 1.68 OD 450 nm
B5 | 1.8 OD 450 nm
B6 | 1.04 OD 450 nm
B7 | 2.51 OD 450 nm
B8 | 1.53 OD 450 nm
B9 | 0.57 OD 450 nm
B10 | 1.47 OD 450 nm
B11 | 1.9 OD 450 nm
B12 | 2.58 OD 450 nm
B13 | 1.16 OD 450 nm
B17 | 2.57 OD 450 nm
B14 | 0.86 OD 450 nm
B15 | 1.55 OD 450 nm
B16 | 1.27 OD 450 nm
